Measured values published in patent US20140017701A1, “CHIMERIC PDK1 KINASES” (priority 2011, published 2014).
Entries after “also recorded” stand apart in the source; their conditions may differ.

T1: GST-C1 (PKCl 131-186) / His-PKCl Δ223 interaction (Homo sapiens, UniProt P41743)
T1 sequence (P41743 233-596): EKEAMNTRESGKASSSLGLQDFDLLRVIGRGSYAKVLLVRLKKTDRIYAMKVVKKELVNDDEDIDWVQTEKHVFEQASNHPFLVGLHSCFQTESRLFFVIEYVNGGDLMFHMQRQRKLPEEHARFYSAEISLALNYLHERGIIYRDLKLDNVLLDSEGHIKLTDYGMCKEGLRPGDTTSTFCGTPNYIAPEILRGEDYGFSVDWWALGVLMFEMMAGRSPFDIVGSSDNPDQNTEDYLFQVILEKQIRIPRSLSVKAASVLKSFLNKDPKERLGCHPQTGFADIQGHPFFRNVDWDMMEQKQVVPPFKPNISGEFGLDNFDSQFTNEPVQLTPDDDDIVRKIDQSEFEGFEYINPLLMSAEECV

T2: GST-PSR-C1 (PKCl 100-185) / His-PKCl Δ223 interaction (Homo sapiens, UniProt P41743)
T2 sequence (P41743 233-596): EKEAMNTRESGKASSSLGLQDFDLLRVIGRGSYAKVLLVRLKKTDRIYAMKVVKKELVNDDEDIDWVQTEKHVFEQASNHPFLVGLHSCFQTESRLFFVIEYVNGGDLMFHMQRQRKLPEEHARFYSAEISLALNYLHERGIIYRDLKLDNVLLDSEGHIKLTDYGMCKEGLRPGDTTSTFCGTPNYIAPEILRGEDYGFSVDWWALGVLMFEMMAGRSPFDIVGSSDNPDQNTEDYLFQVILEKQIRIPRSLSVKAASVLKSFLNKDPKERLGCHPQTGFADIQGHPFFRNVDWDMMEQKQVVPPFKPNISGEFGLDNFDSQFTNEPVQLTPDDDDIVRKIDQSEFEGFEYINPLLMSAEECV

T3: PSRtide (biotin-KSIYRRGSRRWRKLYRA)
T3 chain: KSIYRRGSRRWRKLYRA


Assays:
[1] = molecular target: T1, GST-C1 (PKCl 131-186) / His-PKCl Δ223 interaction; experiment: AlphaScreen interaction assay GST-C1 / His-PKCι Δ223; type: binding
From the text: In FIG. 11 evidence is provided that the C1 domain directly interacts with the catalytic domain of PKCz. A novel assay is set-up to investigate the interaction between the C1 domain constructs fused to GST and the catalytic domain of atypical PKCs containing a 6×His-tag. The assay is based on the alphascreen technology using a donor bead coupled to anti-GST antibodies (to bind the GST-PSR-C1 or GST-C1 constructs derived from PKCl) and Ni-NTA acceptor beads that bind to His-PKCl Δ223 (catalytic domain). The interaction is measured by the emission of light from the acceptor beads that happens when the two beads are in close proximity. GST-PSR-C1 readily interacted with His-PKCl Δ223. […] PIFtide and HM polypeptides are known to interact with the PIF-pocket of AGC kinases. Thus, the assay provides evidence that polypeptides binding to the PIF-pocket displace the interaction. In addition, small compounds that inhibit both atypical PKC isoforms and have been co-crystallized with PDK1-PKCz chimera (e.g. PS315), also displace the interaction between the C1 domain and the catalytic domain. Together, the data highlight the important role of the PIF-pocket in the regulation of PKCs and the need to develop tools to improve the methods for drug development to the PIF-pocket on AGC kinases. […] Indeed modeling of the pseudosubstrate into the substrate-binding site, allows the interaction of the C1 domain with the external part of the helix α-C that is a main component of the PIF-pocket (FIG. 13). The invention further provides a method for the screening for compounds that interact with the PIF-pocket on PKC isoforms, PDK1 chimeras or other AGC kinases, as well as kits for said method and compounds identified by said method (aspects (10) to (12) of the invention).
(§1) The AlphaScreen assay was performed according to the manufacturer's general protocol (Perkin Elmer). […] Proteins and beads were incubated in the dark for 1 h 30 min at room temperature and the emission of light from the acceptor beads was measured in the EnVision reader (Perkin Elmer) and analyzed using the EnVision manager software.

[2] = molecular target: T2, GST-PSR-C1 (PKCl 100-185) / His-PKCl Δ223 interaction; experiment: AlphaScreen interaction assay GST-PSR-C1 / His-PKCι Δ223; type: binding
From the text: In FIG. 11 evidence is provided that the C1 domain directly interacts with the catalytic domain of PKCz. A novel assay is set-up to investigate the interaction between the C1 domain constructs fused to GST and the catalytic domain of atypical PKCs containing a 6×His-tag. The assay is based on the alphascreen technology using a donor bead coupled to anti-GST antibodies (to bind the GST-PSR-C1 or GST-C1 constructs derived from PKCl) and Ni-NTA acceptor beads that bind to His-PKCl Δ223 (catalytic domain). The interaction is measured by the emission of light from the acceptor beads that happens when the two beads are in close proximity. GST-PSR-C1 readily interacted with His-PKCl Δ223. […] PIFtide and HM polypeptides are known to interact with the PIF-pocket of AGC kinases. Thus, the assay provides evidence that polypeptides binding to the PIF-pocket displace the interaction. […]
as §1

PDK1 = experiment: Protein kinase activity assay, PDK1; type: biochemical, human; conditions: PDK1 wt / PDK1 50-359
Protocol: For the expression and purification of protein kinases fused to GST, pEBG-2T derived plasmids were transfected into 8×14.5 cm dishes containing HEK293 cells using the PEI method ([…] and […]/14.5 cm dish). The cells were lysed after 48 h in a buffer containing 50 mM Tris-HCl pH 7.5, 1 mM EGTA, 1 mM EDTA, 1% (w/v) Triton X-100, 1 mM sodium orthovanadate, […], 5 mM sodium pyrophosphate, 0.27 M sucrose, 0.1% β-mercaptoethanol, and 1 tablet of protease inhibitor cocktail per 50 ml of buffer. Lysates were frozen in liquid nitrogen and kept at −80° C. until required. Purification involved incubation of the cleared lysate with glutathione sepharose, followed by 2 washes with 0.5 M NaCl in lysis buffer, 8 washes with a buffer containing 50 mM Tris-HCl, 0.1 mM EGTA and 0.1% β-mercaptoethanol (buffer A), and a last wash with buffer A supplemented with 0.26 M sucrose. Elution was performed with this last buffer containing 20 mM glutathione and the GST-fusion protein was cleared from resin by filtration through a “SigmaPrep” spin column (Sigma). GST-fusion proteins were aliquoted, snap frozen in liquid nitrogen and kept at −80° C. until use. Purity at this stage was above 85% as estimated by SDS-PAGE and staining with Coomassie Brilliant Blue R250. PRK2 was expressed from pEBG-2T-PRK2 (Balendran, A. et al. J Biol Chem 275, 20806-13. (2000)), SGK1 from pEBG-2T-SGK1-ΔN[Ser422Asp], PKBα from pEBG-2T-PKBα[Ser473Asp] (Biondi et al., D. R. Embo J 20, 4380-90. (2001)), PKCl from pEBG-2T-PKCl and PKCζ from pEBG-2T-PKCζ. PDK1 and S6K1 were expressed in Sf9 insect cells using a baculovirus expression system from pFastBac-PDK1 and pFastBac-56K1-T2[Thr412Glu].
The protein kinase activity assays were performed essentially as previously described (Engel, M. et al. Embo J 25, 5469-80 (2006)). The assays were done in a 96-well format and 4 μl aliquots spotted on P81 phospho-cellulose papers (Whatman) using epMotion 5070 (Eppendorf), washed in 0.01% phosphoric acid, dried, and then exposed and analyzed using PhosphoImager technology (FLA-9000 Starion, Fujifilm). Atypical PKC (aPKC) activity assays were performed in a total volume of 20 μl containing 50 mM Tris-HCl pH 7.5, 0.05 mg/ml BSA, 0.1% (v/v) 2-mercaptoethanol, 10 mM MgCl2, 100 μM [γ^32P]ATP (5-50 cpm/pmol), 0.003% Brij, 30-50 ng of aPKC, and MBP (10 μM) or PSRtide (100 μM) as the substrate. After 15 min pre-incubation, the kinase reaction was started by addition of 6 μl of an ATP-Mg mix. When required, lipid activator (LA) phosphatidylserine (100 ng) or PKC lipid activator mix (1×) was included in the pre-incubation. Low basal activity and consistent activation of 1-592 PKCζ and 498 PKCζ by LA was obtained when the pre-incubation time was started by addition of the whole mix on the enzyme.
The substrates were T308tide (200 μM) for PDK1, Kemptide (100 μM) for PKA, and Crosstide (100 μM) for SGK, PKB, S6K, and PRK2. The activity assays for PKCα, β, θ, and δ were performed in the presence of PKC lipid activator mix (1×) using 3 μM of histone H1 as substrate.
The activity assays were performed in duplicates or triplicates (in the case of the temperature stability assay) with less than 10% difference between the duplicate pairs. The activity assays shown were repeated at least twice with similar results. Moreover, most of the assays shown were repeated multiple times with enzymes from independent purifications with similar results. Representative experiments are shown. […]

[3] = molecular target: T3, PSRtide (biotin-KSIYRRGSRRWRKLYRA)

Molecule	Effect on interaction of GST-C1 with His-PKCι Δ223 [1]	Effect on interaction of GST-PSR-C1 with His-PKCι Δ223 [2]	Effect on PDK1 activity (PDK1)	specific activity (phosphorylation of PSRtide by full length PKCζ) [3]
VGNQLPFIGFTYFRENL (ROCK-HM)	displaced; also recorded: strongly diminished	displaced; also recorded: strongly diminished		
RTWALCGTPEYLAPEIILKK (activation loop of PKA)	not			
O=C(O)CC(Cc1nc2cc(Cl)ccc2[nH]1)c1ccc(Cl)cc1 (stereo not shown) [PS114]			Activation	
VGNQLPFIGFT(P)YFRENL (VGNQLPFIGFTYFRENL) [ROCK-pHM, ROCK HM peptide phosphorylated at the HM phosphorylation site]	not and not able to displace	not and not able to displace		
GST-PKCζ wild type (1-592) (protein) MPSRTGPKMEGSGGRVRLKAHYGGDIFITSVDAATTFEELCEEVRDMCRLHQQHPLTLKWVDSEGDPCTVSSQMELEEAFRLARQCRDEGLIIHVFPSTPEQPGLPCPGEDKSIYRRGARRWRKLYRANGHLFQAKRFNRRAYCGQCSERIWGLARQGYRCINCKLLVHKRCHGLVPLTCRKHMDSVMPSQEPPVDDKNEDADLPSEETDGIAYISSSRKHDSIKDDSEDLKPVIDGMDGIKISQGLGLQDFDLIRVIGRGSYAKVLLVRLKKNDQIYAMKVVKKELVHDDEDIDWVQTEKHVFEQASSNPFLVGLHSCFQTTSRLFLVIEYVNGGDLMFHMQRQRKLPEEHARFYAAEICIALNFLHERGIIYRDLKLDNVLLDADGHIKLTDYGMCKEGLGPGDTTSTFCGTPNYIAPEILRGEEYGFSVDWWALGVLMFEMMAGRSPFDIITDNPDMNTEDYLFQVILEKPIRIPRFLSVKASHVLKGFLNKDPKERLGCRPQTGFSDIKSHAFFRSIDWDLLEKKQALPPFQPQITDDYGLDNFDTQFTSEPVQLTPDDEDAIKRIDQSEFEGFEYINPLLLSTEESV				60 to 80 nmol/mg/min
